Assay results published in patent US20240262878A1, “PHOTOACTIVATABLE GASDERMIN PROTEINS” (THE BOARD OF TRUSTEES OF THE UNIVERSITY OF ILLINOIS, priority 2021, published 2024).
Entries after “also recorded” stand apart in the source; their conditions may differ.

These molecules were tested on Hela cells (assay: Optogenetic activation of PhoDer, membrane-targeted jRCaMP1b calcium flare imaging and fluctuation analysis). Conditions: PhoDer mutants in live Hela cells vs PhoDer.
Assay type: cell-based
Description: Cloning. Cloning and subcloning were performed using the DH5a strain of E. coli. All mammalian constructs were cloned into the pcDNA3.0 vector with a modified multiple cloning site. Plasmids were generated as follows. Gasdermin D gene was obtained from Addgene. A diffusible optogenetic GSDMD, referred to herein as “PhoDer” and set forth in SEQ ID NO: 33, was constructed according to the reported domains structure by ligating three fragments into the pcDNA3.0 vector in one reaction via Gibson Assembly (New England BioLabs). For each fragment, PCR was specifically designed to create appropriate complementation. The jRCaMP1b gene, encoding a sensitive red protein calcium indicator, was obtained from Addgene. Membrane targeted calcium indicator jRCaMP1b was constructed by ligating a PCR fragment of the calcium indicator into the restriction enzyme sites BamHI and EcoRI in a modified pcDNA3.0 vector carrying a 5′ fragment encoding the N-terminal Lyn kinase localization sequence.
Cell Culture. HeLa and RAW264.7 cells were maintained in Dulbecco's Modified Eagle Medium (DMEM) medium supplemented with 10% fetal bovine serum (FBS) and 1% penicillin and streptomycin. Cells were transfected at 50%-70% confluency using LIPOFECTAMINE® 2000 transfection reagent and incubated for 24 hours before imaging. Cells were never serum-starved. To examine endogenous inflammatory activation, RAW264.7 cells were treated with 100 ng/μL lipopolysaccharide (LPS, Invivogen) at the beginning of each experiment. Pretreatment to bias membrane composition by phosphatidylinositol 4,5-bisphosphate (PIP2) modifying enzymes was performed by incubating Hela cells in Hanks' Balanced Salt Solution (HBSS) buffer with inhibitors at 37° C. for 10 minutes to prior imaging at the following concentrations: for phosphoinositide 3-kinase (PI3K), cells were treated 10 μM wortmannin (Tocris); and for phospholipase C (PLC), cells were treated with 10 μM U73122 (Tocris). Cells were removed from the incubator and allowed to come to thermal equilibrium before being imaged in HBSS buffer at room temperature.
Fluorescence Imaging, Optogenetic Activation, and Post-Processing. All epifluorescence imaging was performed on a customized Nikon Ti2-E microscope equipped with individual control over excitation (EX) and emission (EM) filters, a fast LED light source (Lumencor) with fluid-cooled EMCCD (Andor), motorized stage, and examined under a 40× or 100× oil immersion objective under live focus tracking. For RFP, excitation (EX) and emission (EM) filter combinations (maxima/bandwidth in nm) are indicated. Cells were imaged at 12-15 second intervals. Emission intensities of individual cells were background-subtracted before normalization to zero time point, when optogenetic activation began. In the optical setup, optogenetic activation of PhoDer was performed using an EX filter at 440/20 nm for 20-30 ms across whole fields of view. This replicated the progression of endogenous activation of GSDMD observed in LPS-stimulated RAW264.7 cells. […] Where applicable, inhibitors were treated at the indicated concentration for 15 minutes prior to imaging.
Fluctuation Analysis and Quantification. To automate the objective isolation and quantitation of calcium flares, a post-processing algorithm was developed based on principles and normalization scheme detailed in work on photochromic stochastic optical fluctuation imaging (pcSOFI) (Dedecker et al. (2012) Proc. Natl. Acad. Sci. USA 109: 10909-10914). Briefly, fluctuation caused by the flares generate high autocorrelation signals in time-averaged series and yield high contrast at locales of the greatest ion flux. To truly reflect the local flux change, it is then normalized to remove dependence on the number of biosensors reporting at the given location using a scheme detailed previously (Mo et al. (2017) Nat. Methods 14 (4): 427-434). […]

Molecule | pore opening/closing dynamics (automated flare quantification)
m3: PhoDer mutant R42Q/K43Q (SEQ ID NO:36) (protein) MGSAFERVVRRVVQELDHGGEFIPVTSLQSSTGFQPYCLVVQQPSSSWFWKPRYKCVNLSIKDILEPDAAEPDVQRGRSFHFYDAMDGQIQGSVELAAPGQAKIAGGAAVSDSSSTSMNVYSLSVDPNTWQTLLHERHLRQPEHKVLQQLRSRGDNVYVVTEVLQTQKEVEVTRTHKREGSGRFSLPGATCLQGEGQGHLSQKKTVTIPSGSTLAFRVAQLVIDSDLDVLLFPDKKQRTFQPPATGHKRSTSEGAWPQLPSGLSMMRCLHNGGGSVIPDYFKQSFPEGYSWERSMTYEDGGICIATNDITMEGDSFINKIHFKGTNFPPNGPVMQKRTVGWEASTEKMYERDGVLKGDVKMKLLLKGGGHYRCDYRTTYKVKQKPVKLPDYHFVDHRIEILSHDKDYNKVKLYEHAVARNSTDSMDELYKGGSGGMVSKGEETITSVIKPDMKNKLRMEGNVNGHAFVIEGEGSGKPFEGIQTIDLEVKEGAPLPFAYDILTTAFHYGNRVFTKYPRGGGVPAEGAFTEDFQGLRAEVETISKELELLDRELCQLLLEGLEGVLRDQLALRALEEALEQGQSLGPVEPLDGPAGAVLECLVLSSGMLVPELAIPVVYLLGALTMLSETQHKLLAEALESQTLLGPLELVGSLLEQSAPWQERSTMSLPPGLLGNSWGEGAPAWVLLDECGLELGEDTPHVCWEPQAQGRMCALYASLALLSGLSQEPH | significantly reduced pore opening/closing dynamics; also recorded: significant changes in pore activity
m5: PhoDer mutant R42Q/K43Q/K51Q/R53Q/K55Q (SEQ ID NO:38) (protein) MGSAFERVVRRVVQELDHGGEFIPVTSLQSSTGFQPYCLVVQQPSSSWFWQPQYQCVNLSIKDILEPDAAEPDVQRGRSFHFYDAMDGQIQGSVELAAPGQAKIAGGAAVSDSSSTSMNVYSLSVDPNTWQTLLHERHLRQPEHKVLQQLRSRGDNVYVVTEVLQTQKEVEVTRTHKREGSGRFSLPGATCLQGEGQGHLSQKKTVTIPSGSTLAFRVAQLVIDSDLDVLLFPDKKQRTFQPPATGHKRSTSEGAWPQLPSGLSMMRCLHNGGGSVIPDYFKQSFPEGYSWERSMTYEDGGICIATNDITMEGDSFINKIHFKGTNFPPNGPVMQKRTVGWEASTEKMYERDGVLKGDVKMKLLLKGGGHYRCDYRTTYKVKQKPVKLPDYHFVDHRIEILSHDKDYNKVKLYEHAVARNSTDSMDELYKGGSGGMVSKGEETITSVIKPDMKNKLRMEGNVNGHAFVIEGEGSGKPFEGIQTIDLEVKEGAPLPFAYDILTTAFHYGNRVFTKYPRGGGVPAEGAFTEDFQGLRAEVETISKELELLDRELCQLLLEGLEGVLRDQLALRALEEALEQGQSLGPVEPLDGPAGAVLECLVLSSGMLVPELAIPVVYLLGALTMLSETQHKLLAEALESQTLLGPLELVGSLLEQSAPWQERSTMSLPPGLLGNSWGEGAPAWVLLDECGLELGEDTPHVCWEPQAQGRMCALYASLALLSGLSQEPH | significantly reduced pore opening/closing dynamics; also recorded: significant changes in pore activity
m4: PhoDer mutant R42E/K43E (SEQ ID NO:37) (protein) MGSAFERVVRRVVQELDHGGEFIPVTSLQSSTGFQPYCLVVEEPSSSWFWKPRYKCVNLSIKDILEPDAAEPDVQRGRSFHFYDAMDGQIQGSVELAAPGQAKIAGGAAVSDSSSTSMNVYSLSVDPNTWQTLLHERHLRQPEHKVLQQLRSRGDNVYVVTEVLQTQKEVEVTRTHKREGSGRFSLPGATCLQGEGQGHLSQKKTVTIPSGSTLAFRVAQLVIDSDLDVLLFPDKKQRTFQPPATGHKRSTSEGAWPQLPSGLSMMRCLHNGGGSVIPDYFKQSFPEGYSWERSMTYEDGGICIATNDITMEGDSFINKIHFKGTNFPPNGPVMQKRTVGWEASTEKMYERDGVLKGDVKMKLLLKGGGHYRCDYRTTYKVKQKPVKLPDYHFVDHRIEILSHDKDYNKVKLYEHAVARNSTDSMDELYKGGSGGMVSKGEETITSVIKPDMKNKLRMEGNVNGHAFVIEGEGSGKPFEGIQTIDLEVKEGAPLPFAYDILTTAFHYGNRVFTKYPRGGGVPAEGAFTEDFQGLRAEVETISKELELLDRELCQLLLEGLEGVLRDQLALRALEEALEQGQSLGPVEPLDGPAGAVLECLVLSSGMLVPELAIPVVYLLGALTMLSETQHKLLAEALESQTLLGPLELVGSLLEQSAPWQERSTMSLPPGLLGNSWGEGAPAWVLLDECGLELGEDTPHVCWEPQAQGRMCALYASLALLSGLSQEPH | significantly reduced pore opening/closing dynamics
m6: PhoDer mutant R42E/K43E/K51E/R53E/K55E (SEQ ID NO: 39) (protein) MGSAFERVVRRVVQELDHGGEFIPVTSLQSSTGFQPYCLVVEEPSSSWFWEPEYECVNLSIKDILEPDAAEPDVQRGRSFHFYDAMDGQIQGSVELAAPGQAKIAGGAAVSDSSSTSMNVYSLSVDPNTWQTLLHERHLRQPEHKVLQQLRSRGDNVYVVTEVLQTQKEVEVTRTHKREGSGRFSLPGATCLQGEGQGHLSQKKTVTIPSGSTLAFRVAQLVIDSDLDVLLFPDKKQRTFQPPATGHKRSTSEGAWPQLPSGLSMMRCLHNGGGSVIPDYFKQSFPEGYSWERSMTYEDGGICIATNDITMEGDSFINKIHFKGTNFPPNGPVMQKRTVGWEASTEKMYERDGVLKGDVKMKLLLKGGGHYRCDYRTTYKVKQKPVKLPDYHFVDHRIEILSHDKDYNKVKLYEHAVARNSTDSMDELYKGGSGGMVSKGEETITSVIKPDMKNKLRMEGNVNGHAFVIEGEGSGKPFEGIQTIDLEVKEGAPLPFAYDILTTAFHYGNRVFTKYPRGGGVPAEGAFTEDFQGLRAEVETISKELELLDRELCQLLLEGLEGVLRDQLALRALEEALEQGQSLGPVEPLDGPAGAVLECLVLSSGMLVPELAIPVVYLLGALTMLSETQHKLLAEALESQTLLGPLELVGSLLEQSAPWQERSTMSLPPGLLGNSWGEGAPAWVLLDECGLELGEDTPHVCWEPQAQGRMCALYASLALLSGLSQEPH | significantly reduced pore opening/closing dynamics

Same assay, conditions: charge-altering mutations

Molecule | calcium response of mutants at other putative lipid-binding sites
R7E/R10E/R11E: mutant at the well-conserved N-terminal region of GSDMD (protein, UniProt P57764 1-484, looked up, variant R7E R10E R11E) Gasdermin-D: MGSAFEEVVEEVVQELDHGGEFIPVTSLQSSTGFQPYCLVVRKPSSSWFWKPRYKCVNLSIKDILEPDAAEPDVQRGRSFHFYDAMDGQIQGSVELAAPGQAKIAGGAAVSDSSSTSMNVYSLSVDPNTWQTLLHERHLRQPEHKVLQQLRSRGDNVYVVTEVLQTQKEVEVTRTHKREGSGRFSLPGATCLQGEGQGHLSQKKTVTIPSGSTLAFRVAQLVIDSDLDVLLFPDKKQRTFQPPATGHKRSTSEGAWPQLPSGLSMMRCLHNFLTDGVPAEGAFTEDFQGLRAEVETISKELELLDRELCQLLLEGLEGVLRDQLALRALEEALEQGQSLGPVEPLDGPAGAVLECLVLSSGMLVPELAIPVVYLLGALTMLSETQHKLLAEALESQTLLGPLELVGSLLEQSAPWQERSTMSLPPGLLGNSWGEGAPAWVLLDECGLELGEDTPHVCWEPQAQGRMCALYASLALLSGLSQEPH | much-reduced calcium magnitude
R137E: mutant at another helical region of GSDMD N-terminal domain (protein, UniProt P57764 1-484, looked up, variant R137E) Gasdermin-D: MGSAFERVVRRVVQELDHGGEFIPVTSLQSSTGFQPYCLVVRKPSSSWFWKPRYKCVNLSIKDILEPDAAEPDVQRGRSFHFYDAMDGQIQGSVELAAPGQAKIAGGAAVSDSSSTSMNVYSLSVDPNTWQTLLHEEHLRQPEHKVLQQLRSRGDNVYVVTEVLQTQKEVEVTRTHKREGSGRFSLPGATCLQGEGQGHLSQKKTVTIPSGSTLAFRVAQLVIDSDLDVLLFPDKKQRTFQPPATGHKRSTSEGAWPQLPSGLSMMRCLHNFLTDGVPAEGAFTEDFQGLRAEVETISKELELLDRELCQLLLEGLEGVLRDQLALRALEEALEQGQSLGPVEPLDGPAGAVLECLVLSSGMLVPELAIPVVYLLGALTMLSETQHKLLAEALESQTLLGPLELVGSLLEQSAPWQERSTMSLPPGLLGNSWGEGAPAWVLLDECGLELGEDTPHVCWEPQAQGRMCALYASLALLSGLSQEPH | either encumbering or abrogating the calcium response
